Holding throughout (experiment): fluorescence anisotropy
Background: Polarisation of emitted light reports the rotation of a fluorescent probe.

One data set addresses T1, RecE564 K643A (Escherichia coli K12, UniProt P15032 564-866, K643A).
T1 sequence: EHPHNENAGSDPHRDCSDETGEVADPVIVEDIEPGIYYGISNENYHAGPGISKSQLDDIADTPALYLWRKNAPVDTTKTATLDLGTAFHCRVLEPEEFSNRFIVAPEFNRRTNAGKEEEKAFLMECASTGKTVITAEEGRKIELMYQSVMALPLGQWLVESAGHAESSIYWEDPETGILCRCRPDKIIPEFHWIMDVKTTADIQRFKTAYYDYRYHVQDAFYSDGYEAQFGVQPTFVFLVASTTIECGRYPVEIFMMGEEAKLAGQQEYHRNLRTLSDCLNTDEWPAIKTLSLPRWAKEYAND

In the next data set the target is T2, RecE564 R858A (Escherichia coli K12, UniProt P15032 564-866, R858A).
T2 sequence: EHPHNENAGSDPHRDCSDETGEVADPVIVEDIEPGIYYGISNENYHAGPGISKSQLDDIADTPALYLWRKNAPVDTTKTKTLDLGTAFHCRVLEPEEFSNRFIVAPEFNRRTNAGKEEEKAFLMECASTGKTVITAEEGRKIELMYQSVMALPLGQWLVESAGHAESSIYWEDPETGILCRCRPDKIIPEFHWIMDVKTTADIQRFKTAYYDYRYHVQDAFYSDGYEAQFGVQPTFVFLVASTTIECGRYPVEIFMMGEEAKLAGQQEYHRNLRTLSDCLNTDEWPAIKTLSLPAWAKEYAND

In another data set the target is T3, RecE564 Y608A (Escherichia coli K12, UniProt P15032 564-866, Y608A).
T3 sequence: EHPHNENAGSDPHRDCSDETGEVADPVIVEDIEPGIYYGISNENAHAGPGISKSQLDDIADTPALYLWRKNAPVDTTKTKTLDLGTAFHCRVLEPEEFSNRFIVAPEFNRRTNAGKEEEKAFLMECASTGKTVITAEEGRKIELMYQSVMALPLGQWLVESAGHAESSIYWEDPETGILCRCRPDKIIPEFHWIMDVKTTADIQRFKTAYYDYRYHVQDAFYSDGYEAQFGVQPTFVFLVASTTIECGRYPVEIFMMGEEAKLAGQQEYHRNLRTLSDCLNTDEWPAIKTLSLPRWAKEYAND

The target of another data set is T4, RecE564 Q781A (Escherichia coli K12, UniProt P15032 564-866, Q781A).
T4 sequence: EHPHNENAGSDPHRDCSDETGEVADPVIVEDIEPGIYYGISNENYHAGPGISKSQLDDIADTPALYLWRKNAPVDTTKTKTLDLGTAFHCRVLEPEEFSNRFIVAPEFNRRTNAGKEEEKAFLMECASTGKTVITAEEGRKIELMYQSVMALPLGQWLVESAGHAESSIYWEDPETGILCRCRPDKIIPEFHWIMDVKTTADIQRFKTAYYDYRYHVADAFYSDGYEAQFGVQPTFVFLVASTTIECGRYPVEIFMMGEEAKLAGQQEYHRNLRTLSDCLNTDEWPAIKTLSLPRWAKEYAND

A further data set addresses T5, RecE606 P658L (Escherichia coli K12, UniProt P15032 606-866, P658L).
T5 sequence: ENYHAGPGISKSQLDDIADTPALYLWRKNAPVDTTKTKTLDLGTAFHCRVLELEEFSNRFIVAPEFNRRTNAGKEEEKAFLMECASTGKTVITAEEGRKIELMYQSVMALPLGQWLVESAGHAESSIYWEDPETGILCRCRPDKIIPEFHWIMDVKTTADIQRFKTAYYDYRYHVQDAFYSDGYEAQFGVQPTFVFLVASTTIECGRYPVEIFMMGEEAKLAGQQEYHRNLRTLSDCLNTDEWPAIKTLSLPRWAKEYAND

The next data set addresses T6, RecE564 W859A (Escherichia coli K12, UniProt P15032 564-866, W859A).
T6 sequence: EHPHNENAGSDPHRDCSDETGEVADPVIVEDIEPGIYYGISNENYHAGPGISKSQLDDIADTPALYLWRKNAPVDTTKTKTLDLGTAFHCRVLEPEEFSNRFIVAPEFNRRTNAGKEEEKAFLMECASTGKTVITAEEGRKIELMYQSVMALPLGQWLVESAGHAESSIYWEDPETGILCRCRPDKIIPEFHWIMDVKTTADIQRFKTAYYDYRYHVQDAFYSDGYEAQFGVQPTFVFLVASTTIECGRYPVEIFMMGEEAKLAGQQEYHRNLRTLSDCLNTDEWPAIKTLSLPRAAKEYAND

The target in another data set is T7, RecE564 R768A (Escherichia coli K12, UniProt P15032 564-866, R768A).
T7 sequence: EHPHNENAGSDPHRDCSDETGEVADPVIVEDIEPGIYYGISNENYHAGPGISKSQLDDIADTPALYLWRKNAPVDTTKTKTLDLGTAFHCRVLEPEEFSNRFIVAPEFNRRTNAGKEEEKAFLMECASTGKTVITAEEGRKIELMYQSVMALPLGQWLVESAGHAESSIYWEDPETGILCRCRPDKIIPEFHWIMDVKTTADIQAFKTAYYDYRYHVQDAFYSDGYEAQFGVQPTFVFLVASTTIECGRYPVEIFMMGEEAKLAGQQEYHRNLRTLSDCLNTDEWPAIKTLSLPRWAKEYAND

B1: F25 (dsDNA)
DNA 1: TAGAGCTTAATTGCTGAATCTGGTG
DNA 2: CACCAGATTCAGCAATTAAGCTCTA
As to B1, the Kd with RecE564 K643A turned out to be 210 ± 6 nM; with RecE564 R858A, 77 ± 5 nM; with RecE564 Y608A it was 160 ± 10 nM; in the data set with RecE564 Q781A, 70 ± 20 nM; with RecE606 P658L, 110 ± 20 nM; in the data set with RecE564 W859A, 350 ± 20 nM. In the data set with RecE564 R768A, this molecule gave a Kd of 310 ± 30 nM.

For orientation: Kd means the concentration at which binding is half-saturated.

The values are drawn from article PMC2688778 (Structure (London, England : 1993), 2009).
